Data on 3 molecules can be found in publication PMC12199305 (2025).

The target of test [1] is T1, MEF2A (human, UniProt Q02078 1-507). Briefly: SPR. In general terms: In SPR one partner is held on a chip, and binding of the other changes the refractive index at the surface.
For test [2], the target named is T1, MEF2A. Briefly: SPR. This is another data set of the same source.

T1 sequence (Q02078 whole entry): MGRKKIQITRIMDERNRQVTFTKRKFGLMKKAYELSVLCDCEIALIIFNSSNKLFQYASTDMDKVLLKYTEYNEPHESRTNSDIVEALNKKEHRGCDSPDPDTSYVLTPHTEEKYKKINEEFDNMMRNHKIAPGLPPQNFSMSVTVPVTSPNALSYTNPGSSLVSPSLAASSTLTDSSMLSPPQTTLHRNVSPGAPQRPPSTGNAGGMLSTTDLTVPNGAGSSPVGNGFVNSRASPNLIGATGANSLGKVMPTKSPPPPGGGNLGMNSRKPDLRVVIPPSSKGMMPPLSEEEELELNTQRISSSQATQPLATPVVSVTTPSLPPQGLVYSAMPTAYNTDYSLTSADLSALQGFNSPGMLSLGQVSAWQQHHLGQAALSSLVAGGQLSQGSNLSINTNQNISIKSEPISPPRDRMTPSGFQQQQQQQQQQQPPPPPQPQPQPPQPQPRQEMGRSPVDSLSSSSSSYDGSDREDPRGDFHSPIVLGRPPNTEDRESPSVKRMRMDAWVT

B1: HDAC4 (enzyme)
chain: MSSQSHPDGLSGRDQPVELLNPARVNHMPSTVDVATALPLQVAPSAVPMDLRLDHQFSLPVAEPALREQQLQQELLALKQKQQIQRQILIAEFQRQHEQLSRQHEAQLHEHIKQQQEMLAMKHQQELLEHQRKLERHRQEQELEKQHREQKLQQLKNKEKGKESAVASTEVKMKLQEFVLNKKKALAHRNLNHCISSDPRYWYGKTQHSSLDQSSPPQSGVSTSYNHPVLGMYDAKDDFPLRKTASEPNLKLRSRLKQKVAERRSSPLLRRKDGPVVTALKKRPLDVTDSACSSAPGSGPSSPNNSSGSVSAENGIAPAVPSIPAETSLAHRLVAREGSAAPLPLYTSPSLPNITLGLPATGPSAGTAGQQDAERLTLPALQQRLSLFPGTHLTPYLSTSPLERDGGAAHSPLLQHMVLLEQPPAQAPLVTGLGALPLHAQSLVGADRVSPSIHKLRQHRPLGRTQSAPLPQNAQALQHLVIQQQHQQFLEKHKQQFQQQQLQMNKIIPKPSEPARQPESHPEETEEELREHQALLDEPYLDRLPGQKEAHAQAGVQVKQEPIESDEEEAEPPREVEPGQRQPSEQELLFRQQALLLEQQRIHQLRNYQASMEAAGIPVSFGGHRPLSRAQSSPASATFPVSVQEPPTKPRFTTGLVYDTLMLKHQCTCGSSSSHPEHAGRIQSIWSRLQETGLRGKCECIRGRKATLEELQTVHSEAHTLLYGTNPLNRQKLDSKKLLGSLASVFVRLPCGGVGVDSDTIWNEVHSAGAARLAVGCVVELVFKVATGELKNGFAVVRPPGHHAEESTPMGFCYFNSVAVAAKLLQQRLSVSKILIVDWDVHHGNGTQQAFYSDPSVLYMSLHRYDDGNFFPGSGAPDEVGTGPGVGFNVNMAFTGGLDPPMGDAEYLAAFRTVVMPIASEFAPDVVLVSSGFDAVEGHPTPLGGYNLSARCFGYLTKQLMGLAGGRIVLALEGGHDLTAICDASEACVSALLGNELDPLPEKVLQQRPNANAVRSMEKVMEIHSKYWRCLQRTTSTAGRSLIEAQTCENEEAETVTAMASLSVGVKPAEKRPDEEPMEEEPPL
Consider B1, for which the koff (commonly a measure of how fast the partners let go of each other) in test [1] was determined as 0.0025 s⁻¹. Further, the Kd (usually the constant that tells how readily two partners part at equilibrium) in test [2] was found to be 5 nM.

B2: HDAC7 (enzyme)
chain: MDLRVGQRPPVEPPPEPTLLALQRPQRLHHHLFLAGLQQQRSVEPMRLSMDTPMPELQVGPQEQELRQLLHKDKSKRSAVASSVVKQKLAEVILKKQQAALERTVHPNSPGIPYRTLEPLETEGATRSMLSSFLPPVPSLPSDPPEHFPLRKTVSEPNLKLRYKPKKSLERRKNPLLRKESAPPSLRRRPAETLGDSSPSSSSTPASGCSSPNDSEHGPNPILGSEALLGQRLRLQETSVAPFALPTVSLLPAITLGLPAPARADSDRRTHPTLGPRGPILGSPHTPLFLPHGLEPEAGGTLPSRLQPILLLDPSGSHAPLLTVPGLGPLPFHFAQSLMTTERLSGSGLHWPLSRTRSEPLPPSATAPPPPGPMQPRLEQLKTHVQVIKRSAKPSEKPRLRQIPSAEDLETDGGGPGQVVDDGLEHRELGHGQPEARGPAPLQQHPQVLLWEQQRLAGRLPRGSTGDTVLLPLAQGGHRPLSRAQSSPAAPASLSAPEPASQARVLSSSETPARTLPFTTGLIYDSVMLKHQCSCGDNSRHPEHAGRIQSIWSRLQERGLRSQCECLRGRKASLEELQSVHSERHVLLYGTNPLSRLKLDNGKLAGLLAQRMFVMLPCGGVGVDTDTIWNELHSSNAARWAAGSVTDLAFKVASRELKNGFAVVRPPGHHADHSTAMGFCFFNSVAIACRQLQQQSKASKILIVDWDVHHGNGTQQTFYQDPSVLYISLHRHDDGNFFPGSGAVDEVGAGSGEGFNVNVAWAGGLDPPMGDPEYLAAFRIVVMPIAREFSPDLVLVSAGFDAAEGHPAPLGGYHVSAKCFGYMTQQLMNLAGGAVVLALEGGHDLTAICDASEACVAALLGNRVDPLSEEGWKQKPNLNAIRSLEAVIRVHSKYWGCMQRLASCPDSWVPRVPGADKEEVEAVTALASLSVGILAEDRPSEQLVEEEEPMNL
On to B2, for which, in test [1], the koff was 0.00082 s⁻¹. The molecule also came in with a Kd in test [2] of 3.5 nM.

B3: HDAC9 (enzyme)
chain: MHSMISSVDVKSEVPVGLEPISPLDLRTDLRMMMPVVDPVVREKQLQQELLLIQQQQQIQKQLLIAEFQKQHENLTRQHQAQLQEHIKELLAIKQQQELLEKEQKLEQQRQEQEVERHRREQQLPPLRGKDRGRERAVASTEVKQKLQEFLLSKSATKDTPTNGKNHSVSRHPKLWYTAAHHTSLDQSSPPLSGTSPSYKYTLPGAQDAKDDFPLRKTASEPNLKVRSRLKQKVAERRSSPLLRRKDGNVVTSFKKRMFEVTESSVSSSSPGSGPSSPNNGPTGSVTENETSVLPPTPHAEQMVSQQRILIHEDSMNLLSLYTSPSLPNITLGLPAVPSQLNASNSLKEKQKCETQTLRQGVPLPGQYGGSIPASSSHPHVTLEGKPPNSSHQALLQHLLLKEQMRQQKLLVAGGVPLHPQSPLATKERISPGIRGTHKLPRHRPLNRTQSAPLPQSTLAQLVIQQQHQQFLEKQKQYQQQIHMNKLLSKSIEQLKQPGSHLEEAEEELQGDQAMQEDRAPSSGNSTRSDSSACVDDTLGQVGAVKVKEEPVDSDEDAQIQEMESGEQAAFMQQPFLEPTHTRALSVRQAPLAAVGMDGLEKHRLVSRTHSSPAASVLPHPAMDRPLQPGSATGIAYDPLMLKHQCVCGNSTTHPEHAGRIQSIWSRLQETGLLNKCERIQGRKASLEEIQLVHSEHHSLLYGTNPLDGQKLDPRILLGDDSQKFFSSLPCGGLGVDSDTIWNELHSSGAARMAVGCVIELASKVASGELKNGFAVVRPPGHHAEESTAMGFCFFNSVAITAKYLRDQLNISKILIVDLDVHHGNGTQQAFYADPSILYISLHRYDEGNFFPGSGAPNEVGTGLGEGYNINIAWTGGLDPPMGDVEYLEAFRTIVKPVAKEFDPDMVLVSAGFDALEGHTPPLGGYKVTAKCFGHLTKQLMTLADGRVVLALEGGHDLTAICDASEACVNALLGNELEPLAEDILHQSPNMNAVISLQKIIEIQSMSLKFS
Regarding B3, the koff in test [1] was 0.0082 s⁻¹. Moreover, in test [2], binding was characterised by a dissociation constant (Kd) of 19.1 nM.
